This data set addresses PD-1 (PDCD1, recombinant full length) (Homo sapiens, UniProt Q15116 Q15116:25-288). The data set can be described thus: BLI; per-concentration fits 9.90, 4.17, 1.34 nM; phosphate pH 7.4, 137 mM NaCl, 2.7 mM KCl, 0.1% BSA, 0.01% Tween-20, 25 C. The settings on record: tags: ACROBiosystems, produced in HEK293; label: 5' biotin (BLI) or FAM (flow); predicted hairpin-bulge / possible G-quadruplex.

PD-1 (PDCD1, recombinant full length), sequence (Q15116 25-288, one chain of several): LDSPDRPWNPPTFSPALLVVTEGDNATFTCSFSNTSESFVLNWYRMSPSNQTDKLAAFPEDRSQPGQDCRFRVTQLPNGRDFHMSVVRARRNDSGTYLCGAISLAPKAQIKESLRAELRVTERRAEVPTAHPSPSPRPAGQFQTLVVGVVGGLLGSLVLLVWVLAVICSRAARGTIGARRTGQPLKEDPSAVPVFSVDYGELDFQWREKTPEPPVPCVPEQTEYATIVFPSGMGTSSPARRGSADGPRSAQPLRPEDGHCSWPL
Procedure: Specific PD-1 5′ biotinylated DNA aptamer (Midland Oligos) were prepared in the concentration range of (10 nM and 100 nM). […] Octet Red analysis software (ForteBio) was used to analyze the sensorgram data.

B1: fpf2 (10-150-373) (ssDNA)
DNA: CCGTATACATACCTGATAGCGTATGCGAGGAAGTGGGCTTGGTGTGGTGGGCTTCTCTCAGTAGGTGCATAAGCGCATGCATGC
Turning to B1, the binding result was “binds”.

These data come from patent US20190233824A1, “PD-1 SPECIFIC APTAMERS” (THE METHODIST HOSPITAL SYSTEM, published 2019).
